This is an account of results in publication PMC10676424, “VirB, a transcriptional activator of virulence in Shigella flexneri, uses CTP as a cofactor” (Communications Biology, 2023).

Numbering of substitutions follows the chain as printed. Numbers in names are those of the source.

The target in series [1] is T1, Sfl VirB (Shigella flexneri, UniProt P0A247).
T1 construct: full length, N-terminal GFP tag removed with HRV-3C protease, made in E. coli BL21-Gold (DE3), dimer; gene on invasion plasmid pINV
T1 sequence (P0A247 whole entry): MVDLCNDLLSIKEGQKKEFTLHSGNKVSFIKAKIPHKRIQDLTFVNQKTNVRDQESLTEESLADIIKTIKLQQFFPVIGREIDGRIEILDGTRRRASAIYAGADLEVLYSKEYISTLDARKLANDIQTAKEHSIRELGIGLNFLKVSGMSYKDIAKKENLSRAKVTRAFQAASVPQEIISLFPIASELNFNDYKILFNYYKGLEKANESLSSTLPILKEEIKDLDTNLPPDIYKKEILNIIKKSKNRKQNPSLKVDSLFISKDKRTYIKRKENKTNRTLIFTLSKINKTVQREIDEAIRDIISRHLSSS
The series can be described thus: isothermal titration calorimetry. The series is classed as binding.

Series [2] deals with the molecule itself. Kind of series: cross-linking; plasmid entrapment assay: 2 uM VirB, 250 uM CTP, 50 nM plasmid DNA, 1 mM BMOE, room temperature; low stringency buffer (150 mM NaCl, 50 mM Tris-HCl pH 7.5, 5 mM MgCl2) or high stringency buffer (25 mM HEPES/NaOH pH 7.5, 500 mM NaCl, 5 mM MgCl2, 1 mM DTT, 10 uM BSA, 0.01% Tween 20); SDS-PAGE and agarose gel.
Series [3] concerns the molecule itself. Kind of series: cross-linking; site-specific cysteine cross-linking with 1 mM BMOE; 10 uM protein, with or without 1 mM CTP and 1 uM 40-bp DNA; 150 mM NaCl (also 500/1000 mM), 50 mM Tris-HCl pH 7.5, 5 mM MgCl2; room temperature (25 °C); SDS-PAGE, Coomassie, band quantification.

Consider `Nc1ccn([C@@H]2O[C@H](COP(=O)(O)OP(=O)(O)OP(=O)(O)O)[C@@H](O)[C@H]2O)c(=O)n1` [CTP], for which the dissociation constant Kd in series [1] is approximately 1000 nM.

B1: VirB(C5S, Q15C, A297C) (natural protein)
chain: MVDLSNDLLSIKEGCKKEFTLHSGNKVSFIKAKIPHKRIQDLTFVNQKTNVRDQESLTEESLADIIKTIKLQQFFPVIGREIDGRIEILDGTRRRASAIYAGADLEVLYSKEYISTLDARKLANDIQTAKEHSIRELGIGLNFLKVSGMSYKDIAKKENLSRAKVTRAFQAASVPQEIISLFPIASELNFNDYKILFNYYKGLEKANESLSSTLPILKEEIKDLDTNLPPDIYKKEILNIIKKSKNRKQNPSLKVDSLFISKDKRTYIKRKENKTNRTLIFTLSKINKTVQREIDECIRDIISRHLSSS
notes: not shown: GFP, N-terminal, cleaved
On to B1, for which the “stoichiometry N” value in series [2] is 2.

B2: VirB(C5S, I30C) (natural protein)
chain: B1 chain with C15Q, I30C, C297A
notes: also called engineered C5S, I30C; not shown: GFP, N-terminal, cleaved
Consider B2, for which, in series [3], the binding result is “binds”.

B3: VirB (natural protein)
chain: B1 chain with S5C, C15Q, C297A
notes: as for B1
Regarding B3, in series [3], the binding result was “binds”.
